Tests used:
[1] = molecular target: T1, myosin VI motor domain (MD), aa 1-789 (human, UniProt Q9UM54-1 1-789); experiment: SEC; analytical SEC at 16 °C in PB (20 mM Na2HPO4/NaH2PO4 pH 7.4, 60 mM NaCl, 1 mM EGTA, 2 mM DTT, 2 mM MgCl2); 3.0 μM of the MD and CBD1 proteins; settings: both partners purified
T1 construct: myosin VI, human, motor domain aa 1-789; The methods say that myosin VI or its mutants were co-transfected with CaM; also called the MD; source: HEK293-F (pCAG vector), purified

[2] = molecular target: T2, calmodulin (CaM), light chain of myosin VI (UniProt P0DP23 1-149); experiment: cryo-EM structure; single-particle cryo-EM of myosin VI/CaM in PB, TB + AMPPNP and PB + ATP, the three datasets combined; autoinhibited state, 3.54 Å (4.14 Å map with the SAH-E); settings: both partners purified
T2 construct: calmodulin, the light chain of myosin VI; Two copies stand in the structure: CaM1 on Insert2 (with four Ca2+ ions) and CaM2 on the IQ motif; also called CaM1; CaM2; source: HEK293-F, co-transfected with myosin VI, co-purified

Row | binding result [1] | binding result [2] | Binder
1 | binds | – | myosin VI cargo-binding domain 1 (CBD1), aa 1072-1158 (domain or fragment, human, UniProt Q9UM54-1 1072-1158, looked up, myosin VI, human, CBD1 aa 1072-1158, numbers of the form with LI and SI; also called the CBD1; source: E. coli BL21(DE3), purified (Ni-NTA, size exclusion)) TKKYDLSKWKYAELRDTINTSCDIELLAACREEFHRRLKVYHAWKSKNKKRNTETEQRAPKSVTDYDFAPFLNNSPQQNPAAQIPAR
2 | – | binds | human myosin VI heavy chain, full length, containing both the large-insertion (LI) and small-insertion (SI) regions (natural protein, myosin VI, human, full length with both the alternatively spliced LI and SI regions; codon-optimised synthetic gene; also called the heavy chain; source: HEK293-F, co-transfected with CaM, purified (Flag resin, size exclusion)) MEDGKPVWAPHPTDGFQMGNIVDIGPDSLTIEPLNQKGKTFLALINQVFPAEEDSKKDVEDNCSLMYLNEATLLHNIKVRYSKDRIYTYVANILIAVNPYFDIPKIYSSEAIKSYQGKSLGTRPPHVFAIADKAFRDMKVLKMSQSIIVSGESGAGKTENTKFVLRYLTESYGTGQDIDDRIVEANPLLEAFGNAKTVRNNNSSRFGKFVEIHFNEKSSVVGGFVSHYLLEKSRICVQGKEERNYHIFYRLCAGASEDIREKLHLSSPDNFRYLNRGCTRYFANKETDKQILQNRKSPEYLKAGSMKDPLLDDHGDFIRMCTAMKKIGLDDEEKLDLFRVVAGVLHLGNIDFEEAGSTSGGCNLKNKSAQSLEYCAELLGLDQDDLRVSLTTRVMLTTAGGTKGTVIKVPLKVEQANNARDALAKTVYSHLFDHVVNRVNQCFPFETSSYFIGVLDIAGFEYFEHNSFEQFCINYCNEKLQQFFNERILKEEQELYQKEGLGVNEVHYVDNQDCIDLIEAKLVGILDILDEENRLPQPSDQHFTSAVHQKHKDHFRLTIPRKSKLAVHRNIRDDEGFIIRHFAGAVCYETTQFVEKNNDALHMSLESLICESRDKFIRELFESSTNNNKDTKQKAGKLSFISVGNKFKTQLNLLLDKLRSTGASFIRCIKPNLKMTSHHFEGAQILSQLQCSGMVSVLDLMQGGYPSRASFHELYNMYKKYMPDKLARLDPRLFCKALFKALGLNENDYKFGLTKVFFRPGKFAEFDQIMKSDPDHLAELVKRVNHWLTCSRWKKVQWCSLSVIKLKNKIKYRAEACIKMQKTIRMWLCKRRHKPRIDGLVKVGTLKKRLDKFNEVVSVLKDGKPEMNKQIKNLEISIDTLMAKIKSTMMTQEQIQKEYDALVKSSEELLSALQKKKQQEEEAERLRRIQEEMEKERKRREEDEKRRRKEEEERRMKLEMEAKRKQEEEERKKREDDEKRIQAEVEAQLARQKEEESQQQAVLEQERRDRELALRIAQSEAELISDEAQADLALRRNDGTRPKMTPEQMAKEMSEFLSRGPAVLATKAAAGTKKYDLSKWKYAELRDTINTSCDIELLAACREEFHRRLKVYHAWKSKNKKRNTETEQRAPKSVTDYDFAPFLNNSPQQNPAAQIPARQREIEMNRQQRFFRIPFIRPADQYKDPQSKKKGWWYAHFDGPWIARQMELHPDKPPILLVAGKDDMEMCELNLEETGLTRKRGAEILPRQFEEIWERCGGIQYLQNAIESRQARPTYATAMLQSLLK
